In the DeepSol protein solubility set:

Test: soluble on expression in E. coli; label from the status in PepcDB or PDB records
In the case of “MAHHHHHHMDMLHQIYALEYKRNTQRSDRIRDKDKTKIRILFIGGNEFSLLCFKVIRLIIKYVRNDIVLDHVITKSPRKKGRHLKLKKSHIEEEAEKEKIKIFYYDKIRNDTYMLKNETFDLCISASFGEIFNASFFKNIASNVYTLHPSLLPLYRGASPIQRSLLNNESLFGYSIFLTNLRIDAGPVLIRSPHTFGDAFNFNDIITILFTLGSLHLMRHIFFLANYKLGSTNGELQRTVESPNPSTISTHNNNKHLKIRHLLYDEENITPHNVKKKQFMLHTDIGQDKMNYAWLRNYLMLSSTHNNNTYAPKIKSEERYVCFFCSTALHIHNKVRGFINWPKVECTLYLVHKGGLKAMEVKLIKTSQESGDHISHQHLHQFKHLDALQSHKCFDGIPRKLAIFNRGAINILCKDNSLLKIYKLQRKNKKIMDASSFFNSINGVDLLY”, the “soluble on expression in E. coli” value is reported as “not soluble”.
With “MAHHHHHHMDPSAFGMMAGRGMGRQTEVRDARDTAETIQISSIALLKMLIHGRAGVPLEVMGLMIGEEIDDYTIRVADVFSMPQTATGQSVEAVDPEYQVHMLDKLKLVGRHENVVGWYHSHPGFGCWLSSEDVMTAAGYENLTPRSVSVVVDPIQSVRGKVVIDAFRTIPQEIMAMRAMGEYVEPRQVTSNIGFLSKPSAVALSHNLNRQYYNLPVTFRKKNHELRLLLNVYRKGWQEGFKLEKAKVYQRETRTSIRELISLSKQAEKYITQGRDEDDLGNVGQINAMSHLQMEAENVIHRNLNQSIGAMINAVVF” the “soluble on expression in E. coli” value was “not soluble”.
With “MAHHHHHHMDPYPPSRVEVTVDDSFGRLEGLAEEHSIIEETWRKLMKGLERKILHNGLKFRLHNVVQYDNGKCHLQLGITDYKSSMGVATNVDYFLRSTSDGGTDRRKYLARALGIECFTTTSDEKAVMFCRSSLVSEYPGYYCFPGGHPEPQDILCQLPLSGPATGNHNNIDHNHNSVQNSDLLNDRLRREEAVSQLSGVNPEVIVQHLFDSAVMEVADELGVERTACRNRGLLSIVENMKNMKPDACFWVEVNQTAAEVQARFDSRVGFDAFESVPHSLVVVHLDDIVDCEGAELFIKDCLGGKVTPPSVACWLHGMACYRSLRGTLGKAQTHSFA” the “soluble on expression in E. coli” value was “not soluble”.
In the case of “MAHHHHHHMDTEAIKETAIREVCELSKTLKGTPFAITQRWKHIEALISTFERLLRRLELINLLCCEDEDSVSILKLYTQSQIASLEVLMKALMERGPNAAAFAAYAAGRLDEFVAVFTQSVGKTPRTNACVIADSGMRRWDQAAANGCEHNVVGNAAQNFLDLEVLLKTTLLTRGNQKGESKQCPLTKSDLSGYATVDDAPDRIKWAGGLLTVHKMYGWKEDGWSTNGRNVEFIKEAAEQFKEIKKVLEKQLPNGLDSIDALNAFLKREEPDAMMKDAIKTHQGWEEEKDDKTIIEKIKEIFGIGEPCAKIEFIETLIRTNVSARESGCTKQIDLFQLTTRQMEEVKERRLDQLRKTKTEAENYPRDMAKLSALKTNTNTKQGEYGECQFLCKRYKNAKAENEATDAAPNSPAAARKCRGKTENDCKDECKWDGNVCKNSDETSDYSRVCYSPLFPVLLLSLF”, the “soluble on expression in E. coli” value is reported as “not soluble”.
In the case of “MAHHHHHHMEDITWVRSEVHSWIYDNLRAKWTSLVRQPTKLRTMFSGYRSTPTFVDRVLRRVGIANEIALTAMLRTWGPPELHAFVALYVRLRFPMIVALNKADLSTAADVAAALRQAYPHEVFVLMTARIEWLALQLSRKGYVDYTPGAASLSLKADCGEGADLEKRVRQELHDVTSFFRTTTSSPERLSSSVLRLTTTGVQDVLAAAMEACGVMLVYPVRAFHPVTSLAHCLTFKLGSSAERVFNALVHLQLLEGKLARFEMIDLAPVKRQLHQQLLASLATAPSNEASTPVPAQQQQCAVALPTSVQTLRKTEVIRSSAVLARILSNKRQLA”, the “soluble on expression in E. coli” value is reported as “not soluble”.
For “MAHHHHHHMEPSVKESVSRIPLLKTKAGPRDGDKWTARLKEEYASLITYVEHNKASDSHWFHLESNPQGTRWYGTCWTYYKNEKYEFEMNFDIPVTYPQAPPEIALPELEGKTVKMYRGGKICMTTHFFPLWARNVPYFGISHVLALGLGPWLSIEVPAIVEEGYLKPASAATVPTTGE”, the “soluble on expression in E. coli” value was “soluble”.
With “MAHHHHHHMESIKAKCTAKNLVNEKPAQKTPLSISISEKHKAQLREAFDLFDSEGTGRIKALDVKVALCALGYDVSKEELTQLLKQVGGSIVGGVDFNEFYCVLLAKMMQRESRSEAIRAFRLIDVAEKGYISVDDLRPIADSLEMDLTDDELAEMVLFAHPPVGFGKNENDIKEPLTVSEEEFLKLMGRAHVY” the “soluble on expression in E. coli” value was “soluble”.
With “MAHHHHHHMETIQELILSEENKTNIAVLNLGTNDRRNAVLILETALHLVEKYLGKIINTSYLYETVPEYIVLDKKESCEKINKDCRIYDVNYINELMQNLEESKYEENKELIDKCEEYETFLKNGKVDNSILKEVNVENYLLECNNIIVKNDEIMKNNLSKYKDKYYTSYFYNLTVVVKTFVNDPLSMLVVIKYIEELMKRENVKEKEKFENRIIDIDILFFNDFTIFMKNIKLEKNMIYKILSKYIHLERDIKNGNDNMSKVNMDKDINLNNNNNIKKKNNNDIDCDCVDQKMNNHVNNKNYINSFRDPQEIINNMVDNIEFLSIPHVYTTHRYSILLCLNDMIPEYKHNVLNNTIRCLYNKYVSRMKEQYNINIKENNKRIYVLKDRISYLKEKTNIVGILNVNYDSFSDGGIFVEPKRAVQRMFEMINEGASVIDIGGESSGPFVIPNPKISERDLVVPVLQLFQKEWNDIKNKIVKCDAKPIISIDTINYNVFKECVDNDLVDILNDISACTNNPEIIKLLKKKNKFYSVVLMHKRGNPHTMDKLTNYDNLVYDIKNYLEQRLNFLVLNGIPRYRILFDIGLGFAKKHDQSIKLLQNIHVYDEYPLFIGYSRKRFIAHCMNDQNVVINTQQKLHDEQQNENKNIVDKSHNWMFQMNYMRKDKDQLLYQKNICGGLAIASYSYYKKVDLIRVHDVLETKSVLDVLTKIDQV” the “soluble on expression in E. coli” value was “not soluble”.
In the case of “MAHHHHHHMFGTPVENLTANQIKEELRTLYGVSDFSGCIEQKDLQEKLEKTRETELITHGLKYGPLLQIGNRQSPSGIVTLTHGLGDSANGWESVAVELSRRLPHLLFLLPTASMQPVGINGGAVMNSWYDIRNVSSGNGVTEDAEAIIMSANYLKSLAYTASRRYQVPAGRVVYAGFSQGAVISLAAGLTARIAPAGVAALSGYFAAAEKILPQLCNKSLPVLLCHGTMDNIIPFSAAEKTKETLESLGVGPVTLYSYPMEHSSHPKEINDLEKFLQQVLPGPSSKS”, the “soluble on expression in E. coli” value is reported as “soluble”.
With “MAHHHHHHMFHGMNKTNTWAVILSSSRYFFNLRHTTNALAMYHLCRKHGMDDDHILVFLSDSYACDPRKPNPATIYGAPAQAEQPNLYGCNIRVDYASYDVGVRRFLGVLQGRYDENTPPSRRLDTDENSNIIIYAAGHSAEKFFKFQDSEFMSSTDIADTLMMMWEQRRYRKLVFLVDTCRALSLCLEIKAPNVVCLASSEAHLDSYSHHLDPPSGFTVITRWTFEFLEVLKDSKCRPENGEVTLLQKSFYDFNYGPERLSLPQPLSEPAHFDAVNRPNAVREWKMDEFFCEQDRDKIPVELRYDLF” the “soluble on expression in E. coli” value was “not soluble”.
In the case of “MAHHHHHHMFSLSDTQLGISPMRQFSPSLFRQNKVAEKYRATQGTGIGPQYHQLSDGRLVRPGTSHTKLLPMLEPGETVDWEKLPSYYHWYPKEELHDYIENTTWREIKGRPTGEPLEKRLRKAITGGTFEKDEAPAPDLMPWNSATIPITKFPHERNDEEIIVVDPKTGRIIGMERETYERWKRMMEERRAGLPESDPVEYDQERYVTNKDGVVFDLSKMKYRPIFEGRWNPRRQQSTGRTNPIMT”, the “soluble on expression in E. coli” value is reported as “soluble”.
In the case of “MAHHHHHHMGELFSIKNLFICSNERSVEELRTAMEGLLKKERAEGAGGGEKEAKEETHPGGKKYEMIKDYLDANKNNVLHFAIYGNNMNNVKFIIENTNLINSINSEEQNGLIISVLNRNTQISKYLIEQNIDYNQKDKHKANALLYSLITQNYEIFNLLMEKKNIDINVNSFEKGNLLSVSIFERNIHVLKKLFNKFICPFVEGSVYPHPLLYITYSSDNELLFLYLTYCMYYCTKDDALYKINTANFDHSREEIYVDLDHRQVICSIWDNSTYDLSAFKDVLNMTDEDGTPLCSTCVNNGNSLGKNIFDYFSAPS”, the “soluble on expression in E. coli” value is reported as “not soluble”.
In the case of “MAHHHHHHMGFLDGKRILLTGLLSNRSIAYGIAKACKREGAELAFTYVGDRFKDRITEFAAEFGSELVFPCDVADDAQIDALFASLKTHWDSLDGLVHSIGFAPREAIAGDFLDGLTRENFRIAHDISAYSFPALAKAALPMLSDDASLLTLSYLGAERAIPNYNTMGLAKAALEASVRYLAVSLGAKGVRVNAISAGPIKTLAASGIKSFGKILDFVESNSPLKRNVTIEQVGNAGAFLLSDLASGVTAEVMHVDSGFNAVVGGMAGLEE”, the “soluble on expression in E. coli” value is reported as “soluble”.
With “MAHHHHHHMGGVRIARCNPKLLDFVTWAVMKGCRLFQRVHVTPLGLVATERIPEFDFVAVVPVEATQSLLSIADDPSFALKVSAERHGEPVPFWEDLTRGSFAFLGFLTKALLTGHPRGVQTYLDVLPFDPAMPIGKMADAAQTTKGYKEWAAPLVAQCKVEESDFNAAFRHAYCLFRRHAIPLWSTSDASGSGHPYFQQSPYARRGQGELMGMVPVMDLALHSPQPNAMIGYPDEEMLQWLSLHKKAAVQQEKGYFVMQAFRDIEEGEVISVNKNAYFNFDDDAFEAWFGYPNVSQVPAEGSGELSSGCKPNGGEGAAVNCAL” the “soluble on expression in E. coli” value was “soluble”.
In the case of “MAHHHHHHMGTLEAQTQGPGSMRLTVVGANGRMGRELITAIQRRKDVELCAVLVRKGSSFVDKDASILIGSDFLGVRITDDPESAFSNTEGILDFSQPQASVLYANYAAQKSLIHIIGTTGFSKTEEAQIADFAKYTTIVKSGNMSLGVNLLANLVKRAAKALDDDFDIEIYEMHHANKVDSPSGTALLLGQAAAEGRNIMLKNVSVNGRSGHTGKREKGTIGFACSRGGTVIGDHSITFAGENERIVLSHIAQERSIFANGALKAALWAKNHENGLYSMLDVLGLNE”, the “soluble on expression in E. coli” value is reported as “soluble”.
In the case of “MAHHHHHHMHAEAAAEAAMPVIATLSSRVVRIMGLNPGYMTLQGSNTYLVGTGQERLLIDSGEGVEGYGHLLQKAVAEESTRLGGPVHISKLLLTHWHGDHIGGVETVRRLFPQVQLLKQPSQYAHTEVDALCQVPPEVVKVEGATLQLVHTPGHTDDHLCAFLQEERALFTSDTVLGTGTSVFSSFRDYMASLHVLERMKPERLYPAHGPVVEDGTARIEEIIRHRHTREKQILQVLCERTHGVSALDSEKGLTVRELVDTIYTTIPAALKTAAGTNVFHHVKKLLNEGRVVVRYAPADLVHFLKDATDYTVFGEGADADVKVIERILTEFRVAAAGVSSGAP”, the “soluble on expression in E. coli” value is reported as “soluble”.
With “MAHHHHHHMHDIGGAELVVAVHQPAAASHGQPFCHEHGKAKTESAGHNLQHAAAIHRNVPKHTRALVVFVARRTPQAVLYGEHGAAADTEVRRKSVHHVRLRPDNAVVHVEHTGQVRTEAALHEDSRARFPATQQRRARHDKPRRQKPDAVQNKRGAVPESRTARGRQHVLRPANRRAQR” the “soluble on expression in E. coli” value was “soluble”.
In the case of “MAHHHHHHMHLLSFLSFIIWFIHCTAKRHEYSIKKYFLNSHNFCKIKPDPFRKDTLKKRLYSSDGIKDEIIIGTRDSPLALKQSEKVRKKIMSYFKKMNKNINVTFKYIKTTGDNILDSKSVGLYGGKGIFTKELDEQLINGNVDLCVHSLKDVPILLPNNIELSCFLKRDTINDAFLSIKYKSINDMNTVKSVSKTEDIHHINKKDSDHNNDTLCTIGTSSLRRRSQIKNRYKNIYVNNIRGNINTRIEKLYNGEVDALIIAMCGIERLIKKANLKHLLKNKEQKNICQPFLLKCNNKKCIDLCHVNIQKLNKNLIYPALGQGIIAVTSHKKNYFISSLLKNINNKKSEMMAQIERSFLYHIDGNCMMPIGGYTNMRNEDIYLHVIINDIHGYNKYQVTQKDTLYNYKEIGPNAAIKMKEIIGTEQFNKIKAEAELHLLNNK”, the “soluble on expression in E. coli” value is reported as “not soluble”.
